In one data set the test system is TUBO cells. The experiment in a line: Binding to TUBO cells by flow cytometry. Particulars: biotinylated. More on the design: species or system mouse. On the procedure: DNA sequences for anti-human KIT aptamer (21) and mouse c-Kit aptamers (22) conjugated with biotin at 3′ were functionalized by short denaturation-renaturation step (95° C. 10 min, 5 min snap-cooling on ice). These DNA sequences were 5′-[…] […]-3′ (SEQ ID NO: 2) for human KIT, 5′-[…]-3′ (SEQ ID NO:3) for mouse c-Kit. These activated aptamers were used for binding assay to the cell lines by flow cytometry. For chimera preparation, human KIT-aptamer or mouse c-Kit-aptamer miR-26a chimera was assembled by three compartments of DNA/RNA hybrid sequences. The sequences were 5′-[…] […]/C3 (SEQ ID NO:4) spacer/CCUAUUCUGG-3′(SEQ ID NO:5) for human KIT aptamer+the part of passenger sequence for miR-26a-5p, 5′-[…]/C3 (SEQ ID NO:6) spacer/CCUAUUCUGG-3′ (SEQ ID NO:7) for mouse cKit aptamer+the part of passenger sequence for miR-26a-5p, 5′-GUUACUUGCACG/TEG (triethylene glycol)-Cholesterol-3′ (SEQ ID NO:8) for the part of sequence for miR-26a-5p+cholesterol, and 5′-[…]-3′ (SEQ ID NO:9) for guide sequence for miR-26a-5p (RNA sequences were represented as italic). The guide sequence for scramble control was […] (SEQ ID NO:10). To protect the oligonucleotide sequences from nuclease degradation, phosphorothioate bonds were introduced between the last 3 nucleotides at the 5′-end of DNA aptamers. The RNA sequences were modified with 2′-fluoro-uridines. […]
On the technique in general: In flow cytometry, cells or beads pass a laser one at a time.

Data set [1] is described as follows: Plasma levels and in vivo imaging of miR-26a chimera in TUBO tumor-bearing BALB/c mice. More on the design: species or system mouse. Particulars: 670 pmol single intravenous dose, qPCR. On the procedure:
FIG. 8A is a graph showing the pharmacokinetics of plasma levels of miR-26a chimera and the single dose administration in BALB/c mice bearing mouse TUBO breast cancer cell line. miR-26a chimera (670 pmol/20 g) was injected intravenously. Blood samples were collected at the indicated time points. The concentrations of miR-26a were determined by quantitative PCR using standard curve generated with dose-titrated miR-26a chimera. Data were pooled from three experiments, involving a total of 3 mice. FIG. 8B is a series of pictures showing in vivo imaging of miR-26a chimera conjugated with AF647 dye in BALB/c mice bearing tumor with TUBO cell line. A single dose of miR-26a chimera (670 pmol/20 g) was intravenously injected and followed by serial fluorescence imaging at the indicated time points by IVIS spectrum (Caliper LifeSciences, Waltham, Mass.). Data shown are series images from one experiment. Similar data were obtained from another experiment.
(In general: Quantitative PCR measures a nucleic acid by following its amplification.)

Another data set has as its system hematopoiesis. The experiment in a line: Carboplatin-induced myelosuppression in mice. The format is in vivo, mouse. The method, then: For xenograft models, the NSG mice and BALB/c mice were subcutaneously injected with 2×10^6 viable MDA-MB-231 cells and TUBO cells in their right hind limbs, respectively. After the tumor grew to 1 cm in diameter, mice were randomly divided into the groups for each treatment. For no treatment control, 100 μl saline with 1% mouse serum was intravenously injected through tail vein. For treatment groups, 670 pmol/20 g chimeras and/or 5(0 mg/kg 5-fluorouracil (5-FU), or 120 mg/kg carboplatin were also intravenously injected. Tumor sizes were measured in two dimensions every 3 days. Tumor volume (V) was calculated using the following formula: V=(½) S^2×L (S. the shortest dimension; L, the longest dimension). Animals were euthanized when the tumor size was over 2 cm diameters, tumor ulcerated, or became necrotic. For chimera treatment in normal mice, C57BL/6 mice were treated with miR-26a chimera (670 pmol/20 g) everyday for 3 days by intravenous injection. At day 2, 150 mg/kg 5-FU and/or 120 mg/kg carboplatin was injected together with the chimera. Peripheral bloods were collected at day 5 and day 10 after the 5-FU treatment. Complete blood counts were measured by Hemavet 950FS (Drew Scientific, Miami Lakes, Fla., USA).

In a further data set the test system is TUBO-derived tumors. The experiment in a line: Syngeneic TUBO breast tumor model in BALB/c mice. Type of data set: in vivo, mouse.

A value given as a limit tells only on which side of the number the result lay.

B1: miR-26a chimera: mouse c-Kit DNA aptamer-C3-passenger RNA, passenger RNA-TEG-cholesterol and miR-26a-5p guide strand annealed (SEQ ID NO:6/7, 8, 9) (nucleic acid)
chain 1: GCTCAACGCGGGACGGCTCTCCCATTGAC
chain 2: CCUAUUCUGG
chain 3: GUUACUUGCACG
guide: UUCAAGUAAUCCAGGAUAGGCU
modifications: chemistry not fully specified
As for B1, the “binding to TUBO cells” value in the data set with TUBO cells was “nearly identical levels comparable to an anti-c-Kit antibody”. Besides, the “time miR-26a chimera could be detected in the blood after injection” value in data set [1] is at most 8 h. Moreover, the “carboplatin-induced myelosuppression (figure title)” value in the data set on hematopoiesis (670 pmol/20 g i.v. daily for 3 days, FIG. 6) was “protects mice against carboplatin-induced myelosuppression”. For the same molecule, in the data set on hematopoiesis (3 daily injections of chimera), the “carboplatin-induced reduction in WBC and RBC” value is “prevented reduction in WBC and RBC”; the “carboplatin-induced reduction of platelet on day 5” value is recorded as “not prevented”; the “drop of platelets from day 5 to day 10” value is recorded as “prevented further drop of platelets”. In the data set on TUBO-derived tumors (670 pmol/20 g, 3 days), the “Bak expression among c-Kit+ tumor cells” value was “not significantly elevated” and the “Ezh2 expression among c-Kit+ tumor cells” value is recorded as “specific decrease”. Also, the “miR-26a among c-Kit+ tumor cells” value with TUBO-derived tumors (3 days after injection, qPCR) is recorded as “significant increase”. The “miR-26a levels in c-Kit+ BM cells” value with TUBO-derived tumors (day 3 after single treatment, qPCR) is given as “selective increase”. The “Bak1 expression in c-Kit+ HSPC” value with TUBO-derived tumors (mice that received no 5-FU-treatment) is “not significantly down-regulated”.

These data come from US20200171068A1, “COMPOSITIONS COMPRISING APTAMERS AND NUCLEIC ACID PAYLOADS AND METHODS OF USING THE SAME” (Children's National Medical Center, priority 2017, published 2020).
